From paper PMC6602471

target: T1, ETS1 (Homo sapiens) (UniProt P14921); experiment: PBM; conditions: Custom protein-binding microarray; buffer, salt, pH and temperature not given in the material
T1 sequence (P14921 whole entry, looked up): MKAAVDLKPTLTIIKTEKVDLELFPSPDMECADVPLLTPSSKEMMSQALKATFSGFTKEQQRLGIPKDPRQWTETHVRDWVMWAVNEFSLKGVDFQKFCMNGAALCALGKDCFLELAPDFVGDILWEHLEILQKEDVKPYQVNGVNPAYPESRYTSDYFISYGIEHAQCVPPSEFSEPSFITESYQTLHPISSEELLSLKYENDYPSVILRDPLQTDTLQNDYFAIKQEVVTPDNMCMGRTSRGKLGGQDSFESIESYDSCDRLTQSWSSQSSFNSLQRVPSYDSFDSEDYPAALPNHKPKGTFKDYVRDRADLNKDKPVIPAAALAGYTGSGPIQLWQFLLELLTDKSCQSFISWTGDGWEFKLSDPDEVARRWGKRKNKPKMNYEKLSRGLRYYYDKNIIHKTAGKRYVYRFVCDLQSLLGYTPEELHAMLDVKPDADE

Row | Sequence | binding signal
1 | CGGAAGTGTCGTAAACGTCGGAAATCCGGTTCTTCTGTCTTGATTCGCTTGACGCTGCTG (double strand) [seq01_p23 T>A] | 9.71 log signal
2 | CGGAAGTGTCGTAAACGTCGGACATCCGGTTCTTCTGTCTTGATTCGCTTGACGCTGCTG (double strand) [seq01_p23 T>C] | 12.6 log signal
3 | CGGAAGTGTCGTAAACGTCGGAGATCCGGTTCTTCTGTCTTGATTCGCTTGACGCTGCTG (double strand) [seq01_p23 T>G] | 8.83 log signal
4 | CGGAAGTGTCGTAAACGTCGGATAACCGGTTCTTCTGTCTTGATTCGCTTGACGCTGCTG (double strand) [seq01_p25 T>A] | 8.34 log signal
5 | CGGAAGTGTCGTAAACGTCGGATACCCGGTTCTTCTGTCTTGATTCGCTTGACGCTGCTG (double strand) [seq01_p25 T>C] | 8.31 log signal
6 | CGGAAGTGTCGTAAACGTCGGATAGCCGGTTCTTCTGTCTTGATTCGCTTGACGCTGCTG (double strand) [seq01_p25 T>G] | 8.18 log signal
7 | CGGAAGTGTCGTAAACGTCGGATATACGGTTCTTCTGTCTTGATTCGCTTGACGCTGCTG (double strand) [seq01_p26 C>A] | 9.21 log signal
8 | CGGAAGTGTCGTAAACGTCGGATATCAGGTTCTTCTGTCTTGATTCGCTTGACGCTGCTG (double strand) [seq01_p27 C>A] | 8.51 log signal
9 | CGGAAGTGTCGTAAACGTCGGATATCCAGTTCTTCTGTCTTGATTCGCTTGACGCTGCTG (double strand) [seq01_p28 G>A] | 8.64 log signal
10 | CGGAAGTGTCGTAAACGTCGGATATCCCGTTCTTCTGTCTTGATTCGCTTGACGCTGCTG (double strand) [seq01_p28 G>C] | 8.7 log signal
11 | CGGAAGTGTCGTAAACGTCGGATATCCGATTCTTCTGTCTTGATTCGCTTGACGCTGCTG (double strand) [seq01_p29 G>A] | 8.64 log signal
12 | CGGAAGTGTCGTAAACGTCGGATATCCGCTTCTTCTGTCTTGATTCGCTTGACGCTGCTG (double strand) [seq01_p29 G>C] | 10.1 log signal
13 | CGGAAGTGTCGTAAACGTCGGATATCCGGATCTTCTGTCTTGATTCGCTTGACGCTGCTG (double strand) [seq01_p30 T>A] | 9.94 log signal
14 | CGGAAGTGTCGTAAACGTCGGATATCCGGCTCTTCTGTCTTGATTCGCTTGACGCTGCTG (double strand) [seq01_p30 T>C] | 10.7 log signal
15 | CGGAAGTGTCGTAAACGTCGGATATCCGGGTCTTCTGTCTTGATTCGCTTGACGCTGCTG (double strand) [seq01_p30 T>G] | 10.2 log signal
16 | CGGAAGTGTCGTAAACGTCGGATATCCGGTTCTTCTGTCTTGATTCGCTTGACGCTGCTG (double strand) [seq01_wt0] | 11.9 log signal
17 | CGGAAGTGTCGTAAACGTCGGATATCCGTTTCTTCTGTCTTGATTCGCTTGACGCTGCTG (double strand) [seq01_p29 G>T] | 9.45 log signal
18 | CGGAAGTGTCGTAAACGTCGGATATCCTGTTCTTCTGTCTTGATTCGCTTGACGCTGCTG (double strand) [seq01_p28 G>T] | 10.1 log signal
19 | CGGAAGTGTCGTAAACGTCGGATATCGGGTTCTTCTGTCTTGATTCGCTTGACGCTGCTG (double strand) [seq01_p27 C>G] | 8.65 log signal
20 | CGGAAGTGTCGTAAACGTCGGATATCTGGTTCTTCTGTCTTGATTCGCTTGACGCTGCTG (double strand) [seq01_p27 C>T] | 8.37 log signal
21 | CGGAAGTGTCGTAAACGTCGGATATGCGGTTCTTCTGTCTTGATTCGCTTGACGCTGCTG (double strand) [seq01_p26 C>G] | 8.38 log signal
22 | CGGAAGTGTCGTAAACGTCGGATATTCGGTTCTTCTGTCTTGATTCGCTTGACGCTGCTG (double strand) [seq01_p26 C>T] | 8.55 log signal
23 | CGGAAGTGTCGTAAACGTCGGATCTCCGGTTCTTCTGTCTTGATTCGCTTGACGCTGCTG (double strand) [seq01_p24 A>C] | 8.47 log signal
24 | CGGAAGTGTCGTAAACGTCGGATGTCCGGTTCTTCTGTCTTGATTCGCTTGACGCTGCTG (double strand) [seq01_p24 A>G] | 9.65 log signal
25 | CGGAAGTGTCGTAAACGTCGGATTTCCGGTTCTTCTGTCTTGATTCGCTTGACGCTGCTG (double strand) [seq01_p24 A>T] | 12.5 log signal
26 | CGGAAGTGTCGTAAACGTCGGCTATCCGGTTCTTCTGTCTTGATTCGCTTGACGCTGCTG (double strand) [seq01_p22 A>C] | 8.79 log signal
27 | CGGAAGTGTCGTAAACGTCGGGTATCCGGTTCTTCTGTCTTGATTCGCTTGACGCTGCTG (double strand) [seq01_p22 A>G] | 10.5 log signal
28 | CGGAAGTGTCGTAAACGTCGGTTATCCGGTTCTTCTGTCTTGATTCGCTTGACGCTGCTG (double strand) [seq01_p22 A>T] | 9.21 log signal
29 | GCTGCTGCGGTGCATACCCCACCGGATGTGACCCCGGTCTTGATTCGCTTGACGCTGCTG (double strand) [seq02_wt0] | 10.2 log signal
30 | GGAAAAAGGCCCAGGGTAACACCGGAAGTGGGCTTAGTCTTGATTCGCTTGACGCTGCTG (double strand) [seq04_wt0] | 12 log signal
